Experimental data reported in the Immune Epitope Database (IEDB).

Experiments:
Assay in all cases: IEDB peptide-MHC binding, purified MHC/competitive/radioactivity; ≥ and ≤ were set here for values at or beyond the usual limits of such assays
Settings in all cases: source organism: Bordetella pertussis
HLA-B*53:01 = biological target: HLA-B*53:01
HLA-B*44:03 = biological target: HLA-B*44:03
HLA-B*07:02 = biological target: HLA-B*07:02
HLA-B*57:01 = biological target: HLA-B*57:01

Row | Sequence | IC50 (HLA-B*53:01) [µM] | IC50 (HLA-B*07:02) [µM] | other results
1 | VVETAQPLP | 69.9 |  | 
2 | AQGKALLYR |  |  | IC50 (HLA-B*44:03): ≥ 70.1 µM
3 | MHTIASILL | 7.4 |  | 
4 | GATRAVDSL |  | 69.6 | 
5 | WTFHAGYRY |  |  | IC50 (HLA-B*57:01): 1400 nM
6 | PASANTLLL |  | 15.7 | 
7 | RASASRARI |  |  | IC50 (HLA-B*57:01): ≥ 70400 nM
8 | SGEGRVNIG | 3.18 |  | 
9 | RVAPPAVAL |  | 0.349 | 
